Results on six molecules are retold here after patent US20240084011A1 (NANTBIO, published 2024).

Sequences and labels used below:
B1: IgG antibody 78-8D2 HC / 78-8 LC (antibody, V domains shown)
VH: EVQLVESGGGLVQPGGSLRLSCAASGFTFSSYVMHWVRQAPGKGLEWVSAITWSGRGTYYADSVKGRFTISRDNSKNTLYLQMNSLRAEDTAVYYCARGRLFGLALYGEAFDVWGQGTLVTVSS
VL: DIQMTQSPSSLSASVGDRVTITCQASKDISNYLNWYQQKPGKAPKLLIYDASNLETGVPSRFSGSGSGTDFTFTISSLQPEDIATYYCQQFNSFPLTFGQGTKVEIKR
B2: IgG antibody 78-24D1V HC / 78-24 LC (antibody, V domains shown)
VH: EVQLVESGGGLVQPGGSLRLSCAASGFTFTSYSMHWVRQAPGKGLEWVSGISGSGRSTSYADSVKGRFTISRDNSKNTLYLQMNSLRAEDTAVYYCARDLMAFNLVRAGGFDVWGQGTLVTVSS
VL: B1 VL with K27Q, F91G, N92D, S93A, F94W, L96W
B3: IgG antibody 78-24D17V HC / 78-24 LC (antibody, V domains shown)
VH: B2 VH with T30S, Y32S, R56G, D99Y, A102S, A108T, G109S, G110W
VL: B1 VL with K27Q, F91G, N92D, S93A, F94W, L96W
B4: IgG antibody 78-8D22 HC / 78-8 LC (antibody, V domains shown)
VH: B1 VH with T52S, R56S, L106R
VL: B1 VL
B5: IgG antibody 78-24D22V HC / 78-24 LC (antibody, V domains shown)
VH: B2 VH with T30P, R56W
VL: B1 VL with K27Q, F91G, N92D, S93A, F94W, L96W
B6: IgG antibody 78-8D4 HC / 78-8 LC (antibody, V domains shown)
VH: B1 VH with R56G, A105V, L106R
VL: B1 VL

Residue numbers refer to the chain shown, from its start.

The target in the first assay is T1, recombinant mouse CTLA-4 protein (mouse, UniProt P09793 36-161).
T1 construct: Recombinant protein used as analyte in SPR/Octet; also called murine CTLA-4; mCTLA-4
The assay can be described thus: SPR (Pioneer FE) or Octet (Red96e), 25 C; IgG captured by anti-human Fc or AHC sensor, mCTLA-4 as analyte.
From the text: (§1) All values shown in Table 5 are ×10⁻⁹ M. Antibodies were captured on the chip surface using anti-human Fc antibody (SPR) or AHC sensor (Octet).
Take B1: the Kd was found to be 0.32 nM.

For B2, the Kd came out at 0.18 nM.

Take B3: the Kd was determined as 0.34 nM.

Take B4: the Kd is 0.39 nM.

As for B5, the Kd stood at 0.19 nM.

For the molecule B6, the Kd was found to be 0.27 nM.

Another assay deals with T1, recombinant mouse CTLA-4 protein. The assay can be described thus: SPR (Pioneer FE) or Octet (Red96e), 37 C; IgG captured by anti-human Fc or AHC sensor, mCTLA-4 as analyte.
From the text: as §1
Turning to B1, the Kd was 0.4 nM.

B2: the Kd stood at 0.23 nM.

As for B3, the Kd was 0.33 nM.

With B4, the Kd worked out at 0.53 nM.

As to B5, the Kd stood at 0.27 nM.

Take B6: the Kd was found to be 0.27 nM.

The target in the next assay is T2, recombinant human CTLA-4 protein (human, UniProt P16410 36-161).
T2 construct: Recombinant protein used as analyte in SPR/Octet; also called hCTLA-4; CD152
T2 sequence (looked up): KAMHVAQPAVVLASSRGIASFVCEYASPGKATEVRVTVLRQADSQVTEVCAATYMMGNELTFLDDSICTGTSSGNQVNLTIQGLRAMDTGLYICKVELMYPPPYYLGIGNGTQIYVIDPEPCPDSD
The experiment in a line: SPR (Pioneer FE) or Octet (Red96e), 25 C; IgG captured by anti-human Fc or AHC sensor, hCTLA-4 as analyte.
From the text: as §1
As for B1, the Kd was determined as 0.41 nM.

Take B2: the Kd came out at 1.6 nM.

As for B4, the Kd came to 0.46 nM.

Regarding B5, the dissociation constant Kd was 1.4 nM.

As for B6, the equilibrium dissociation constant (Kd) amounted to 0.39 nM.

Another assay has as its target T2, recombinant human CTLA-4 protein. The assay can be described thus: SPR (Pioneer FE) or Octet (Red96e), 37 C; IgG captured by anti-human Fc or AHC sensor, hCTLA-4 as analyte.
From the text: as §1
Regarding B1, the dissociation constant Kd stood at 0.67 nM.

For B2, the Kd turned out to be 1.5 nM.

Regarding B4, the Kd was determined as 0.44 nM.

For B5, the dissociation constant (Kd) turned out to be 1.3 nM.

B6: the Kd is 0.39 nM.
